# B1: Melanoma-associated antigen 8 (Homo sapiens), P43361 (parent)
# chain: MLLGQKSQRYKAEEGLQAQGEAPGLMDVQIPTAEEQKAASSSSTLIMGTLEEVTDSGSPSPPQSPEGASSSLTVTDSTLWSQSDEGSSSNEEEGPSTSPDPAHLESLFREALDEKVAELVRFLLRKYQIKEPVTKAEMLESVIKNYKNHFPDIFSKASECMQVIFGIDVKEVDPAGHSYILVTCLGLSYDGLLGDDQSTPKTGLLIIVLGMILMEGSRAPEEAIWEALSVMGLYDGREHSVYWKLRKLLTQEWVQENYLEYRQAPGSDPVRYEFLWGPRALAETSYVKVLEHVVRVNARVRISYPSLHEEALGEEKGV
# partner: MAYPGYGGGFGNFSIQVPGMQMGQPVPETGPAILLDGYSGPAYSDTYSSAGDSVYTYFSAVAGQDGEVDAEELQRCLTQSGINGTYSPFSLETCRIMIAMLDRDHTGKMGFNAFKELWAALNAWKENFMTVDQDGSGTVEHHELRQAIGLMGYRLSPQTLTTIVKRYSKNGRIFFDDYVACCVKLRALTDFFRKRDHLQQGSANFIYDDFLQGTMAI
# B2: Pre-B-cell leukemia transcription factor-interacting protein 1 (Homo sapiens), Q96AQ6 (parent)
# chain: MASCPDSDNSWVLAGSESLPVETLGPASRMDPESERALQAPHSPSKTDGKELAGTMDGEGTLFQTESPQSGSILTEETEVKGTLEGDVCGVEPPGPGDTVVQGDLQETTVVTGLGPDTQDLEGQSPPQSLPSTPKAAWIREEGRCSSSDDDTDVDMEGLRRRRGREAGPPQPMVPLAVENQAGGEGAGGELGISLNMCLLGALVLLGLGVLLFSGGLSESETGPMEEVERQVLPDPEVLEAVGDRQDGLREQLQAPVPPDSVPSLQNMGLLLDKLAKENQDIRLLQAQLQAQKEELQSLMHQPKGLEEENAQLRGALQQGEAFQRALESELQQLRARLQGLEADCVRGPDGVCLSGGRGPQGDKAIREQGPREQEPELSFLKQKEQLEAEAQALRQELERQRRLLGSVQQDLERSLQDASRGDPAHAGLAELGHRLAQKLQGLENWGQDPGVSANASKAWHQKSHFQNSREWSGKEKWWDGQRDRKAEHWKHKKEESGRERKKNWGGQEDREPAGRWKEGRPRVEESGSKKEGKRQGPKEPPRKSGSFHSSGEKQKQPRWREGTKDSHDPLPSWAELLRPKYRAPQGCSGVDECARQEGLTFFGTELAPVRQQELASLLRTYLARLPWAGQLTKELPLSPAFFGEDGIFRHDRLRFRDFVDALEDSLEEVAVQQTGDDDEVDDFEDFIFSHFFGDKALKKRSGKKDKHSQSPRAAGPREGHSHSHHHHHRG
# B3: U3 small nucleolar RNA-associated protein 25 homolog (Homo sapiens), Q68CQ4 (parent)
# chain: MGKRGSRSQSQLLNTLTKKQKKHLRDFGEEHPFYDRVSRKEAKPQICQLSESSDSSDSESDSESEPQQVSGYHRLLATLKNVSEEEEEDEEEEEEEDSIVDDAEMNDEDGGSDVSVEEEMAAESTESPENVALSADPEGKEDGEEPPGTSQTSPEEFTDAKHESLFSLETNFLEEESGDNSSLKASQDPFLQHVNKELKEKAIQAVATNPKTTHELKWPILGQLFFSSKFQKLETFKPPKDIDLKSLHLQKPLESTWTKTNSQFLSGPQKSSSPFTPLQKELFLIMNSYRDLFYPERTALKNGEEIRHVYCLHVINHILKANAQVLGNNSRRRSQKFGVGDDDDFRDQGLTRPKVLIVVPFREAALRVVQLFISLLEGDSKKKIIVSNKKRFQGEYGSDPEERPPNLKRPEDYEAVFVGNIDDHFRIGVAILQRSIRLYAPFYSSDILIASPLGLRTIIGGEGEKKRDFDFLSSIELLIIDQADIYLMQNWEHVLHLMNHMNLLPLDSHGVDFSRVRMWSLNNWSKYYRQTLLFGALQDAQINSVFNKYCVNMQGQVAVRNVPMTGSISHVLVQLPHVFQRMEAENLASVIDARFNFFVNKILPQYRDAVMSHTLIYIPSYFDFVRLRNYFKKEELNFTHICEYTQKSGVSRARHFFLQGEKQFLLFTERFHFYKRYTIKGIRNLIFYELPTYPHFYSEICNMLRATNRGEEATWTCTVLYSKYDAQRLAAVVGVERAAQMLQSNKNVHLFITGEK
# partner: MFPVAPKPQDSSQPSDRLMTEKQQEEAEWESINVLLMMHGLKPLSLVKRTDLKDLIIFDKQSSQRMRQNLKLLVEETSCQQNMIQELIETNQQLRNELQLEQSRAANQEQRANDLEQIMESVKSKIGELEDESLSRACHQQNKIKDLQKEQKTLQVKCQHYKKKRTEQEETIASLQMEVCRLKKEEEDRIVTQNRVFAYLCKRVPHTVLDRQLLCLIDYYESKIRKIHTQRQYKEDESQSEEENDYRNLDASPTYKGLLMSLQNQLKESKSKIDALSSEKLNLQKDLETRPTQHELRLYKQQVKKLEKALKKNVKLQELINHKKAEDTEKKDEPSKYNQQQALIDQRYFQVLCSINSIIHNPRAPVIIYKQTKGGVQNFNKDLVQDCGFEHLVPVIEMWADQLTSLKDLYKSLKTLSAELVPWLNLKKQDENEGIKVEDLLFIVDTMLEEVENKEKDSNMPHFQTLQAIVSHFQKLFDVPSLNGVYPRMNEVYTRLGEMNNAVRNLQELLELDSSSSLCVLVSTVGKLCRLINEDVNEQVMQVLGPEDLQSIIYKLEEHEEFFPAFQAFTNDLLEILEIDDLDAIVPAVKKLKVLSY
# B4: Abl interactor 2 (Homo sapiens), Q9NYB9 (parent)
# chain: MAELQMLLEEEIPGGRRALFDSYTNLERVADYCENNYIQSADKQRALEETKAYTTQSLASVAYLINTLANNVLQMLDIQASQLRRMESSINHISQTVDIHKEKVARREIGILTTNKNTSRTHKIIAPANLERPVRYIRKPIDYTILDDIGHGVKWLLRFKVSTQNMKMGGLPRTTPPTQKPPSPPMSGKGTLGRHSPYRTLEPVRPPVVPNDYVPSPTRNMAPSQQSPVRTASVNQRNRTYSSSGSSGGSHPSSRSSSRENSGSGSVGVPIAVPTPSPPSVFPAPAGSAGTPPLPATSASAPAPLVPATVPSSTAPNAAAGGAPNLADGFTSPTPPVVSSTPPTGHPVQFYSMNRPASRHTPPTIGGSLPYRRPPSITSQTSLQNQMNGGPFYSQNPVSDTPPPPPPVEEPVFDESPPPPPPPEDYEEEEAAVVEYSDPYAEEDPPWAPRSYLEKVVAIYDYTKDKEDELSFQEGAIIYVIKKNDDGWYEGVMNGVTGLFPGNYVESIMHYSE
# partner: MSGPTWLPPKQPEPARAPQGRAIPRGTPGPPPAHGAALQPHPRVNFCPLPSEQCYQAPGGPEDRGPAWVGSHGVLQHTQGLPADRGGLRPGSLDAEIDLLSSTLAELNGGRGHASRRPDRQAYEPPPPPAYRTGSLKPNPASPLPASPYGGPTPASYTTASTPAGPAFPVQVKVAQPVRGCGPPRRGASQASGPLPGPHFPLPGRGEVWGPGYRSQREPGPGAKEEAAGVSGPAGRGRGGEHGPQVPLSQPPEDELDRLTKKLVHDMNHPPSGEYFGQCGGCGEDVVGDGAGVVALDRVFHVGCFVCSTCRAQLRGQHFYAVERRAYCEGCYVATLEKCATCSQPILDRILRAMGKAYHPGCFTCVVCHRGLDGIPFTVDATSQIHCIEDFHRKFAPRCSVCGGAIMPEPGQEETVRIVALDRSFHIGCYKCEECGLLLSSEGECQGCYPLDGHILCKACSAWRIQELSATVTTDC
# B5: RNA-binding protein 3 (Homo sapiens), P98179 (parent)
# chain: MSSEEGKLFVGGLNFNTDEQALEDHFSSFGPISEVVVVKDRETQRSRGFGFITFTNPEHASVAMRAMNGESLDGRQIRVDHAGKSARGTRGGGFGAHGRGRSYSRGGGDQGYGSGRYYDSRPGGYGYGYGRSRDYNGRNQGGYDRYSGGNYRDNYDN
# partner: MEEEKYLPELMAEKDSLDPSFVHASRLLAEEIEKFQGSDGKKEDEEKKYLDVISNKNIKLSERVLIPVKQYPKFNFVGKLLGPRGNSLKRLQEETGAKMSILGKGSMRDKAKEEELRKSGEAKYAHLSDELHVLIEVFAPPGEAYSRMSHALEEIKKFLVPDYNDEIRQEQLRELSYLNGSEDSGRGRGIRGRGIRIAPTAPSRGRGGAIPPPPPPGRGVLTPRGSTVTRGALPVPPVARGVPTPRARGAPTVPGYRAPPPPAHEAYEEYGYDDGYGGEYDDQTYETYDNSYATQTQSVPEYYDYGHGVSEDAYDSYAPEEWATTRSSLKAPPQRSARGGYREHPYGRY
# Variants of: B1
# Details: with gran_human GCA
row,effect of a mutation on the interaction,Variant
1,with no effect,R218C

# Variants of: B2
# Details: with mdfi_human MDFI
row,effect of a mutation on the interaction,Variant
1,with no effect,V238M

# Variants of: B3
# Details: with cep70_human CEP70, Q8NHQ1
row,effect of a mutation on the interaction,Variant
1,with no effect,D399E

# Variants of: B4
# Details: with trip6_human TRIP6, Q15654
row,effect of a mutation on the interaction,Variant
1,with no effect,E202K

# Variants of: B4
# Details: with trip6_human TRIP6, Q15654
# Remark: another data set of the same source
row,effect of a mutation on the interaction,Variant
1,with no effect,R373C

# Variants of: B5
# Details: with khdr2_human KHDRBS2, Q5VWX1
row,effect of a mutation on the interaction,Variant
1,with no effect,R145H

# — IntAct's records for PubMed 29892012
